# According to publication PMC3510510, “Structural insight of a concentration-dependent mechanism by which YdiV inhibits Escherichia coli flagellum biogenesis and motility” (Nucleic Acids Research, 2012):
# T1: FlhD4C2 complex (E. coli, UniProt P0A8S9 1-116; P0ABY7 1-192)
# T1 sequence 1: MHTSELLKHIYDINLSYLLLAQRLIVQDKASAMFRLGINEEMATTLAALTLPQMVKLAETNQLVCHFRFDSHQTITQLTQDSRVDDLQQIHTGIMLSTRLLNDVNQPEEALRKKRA
# T1 sequence 2: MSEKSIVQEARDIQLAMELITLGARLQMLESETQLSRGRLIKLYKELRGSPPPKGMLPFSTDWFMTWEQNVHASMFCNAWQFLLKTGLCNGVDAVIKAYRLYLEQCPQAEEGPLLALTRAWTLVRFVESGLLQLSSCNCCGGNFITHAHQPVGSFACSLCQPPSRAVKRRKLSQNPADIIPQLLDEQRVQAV
# T2: DCmut-1 (FlhDC complex with FlhC K42E, K45E) (E. coli, UniProt P0A8S9 1-116; P0ABY7 1-192, K42E | K45E)
# T2 construct: FlhD, E. coli; FlhC, E. coli; Lys42 and Lys45 substituted by Glu; Probably carries the C-terminal His-tag on FlhC as the wild-type complex does; the methods say only that mutants were cloned into pGL01; source: E. coli, purified
# T2 sequence 1: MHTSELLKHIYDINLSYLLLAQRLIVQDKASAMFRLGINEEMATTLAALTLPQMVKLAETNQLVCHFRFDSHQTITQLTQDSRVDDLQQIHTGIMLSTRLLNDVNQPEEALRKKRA
# T2 sequence 2: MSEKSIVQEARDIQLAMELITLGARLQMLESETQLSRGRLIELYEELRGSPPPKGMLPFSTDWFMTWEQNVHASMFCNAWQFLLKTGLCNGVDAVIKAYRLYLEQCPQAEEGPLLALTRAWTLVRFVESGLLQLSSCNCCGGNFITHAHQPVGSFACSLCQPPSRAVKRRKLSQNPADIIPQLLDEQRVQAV
# T3: DCmut-2 (FlhDC complex with FlhC R37E, R39E, K42E, K45E) (E. coli, UniProt P0A8S9 1-116; P0ABY7 1-192, R37E | R39E | K42E | K45E)
# T3 construct: FlhD, E. coli; FlhC, E. coli, four substitutions; Probably carries the C-terminal His-tag on FlhC as the wild-type complex does; the methods say only that mutants were cloned into pGL01; source: E. coli, purified
# T3 sequence 1: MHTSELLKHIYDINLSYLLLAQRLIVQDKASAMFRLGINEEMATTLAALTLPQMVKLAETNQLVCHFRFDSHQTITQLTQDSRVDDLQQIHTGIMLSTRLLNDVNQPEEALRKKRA
# T3 sequence 2: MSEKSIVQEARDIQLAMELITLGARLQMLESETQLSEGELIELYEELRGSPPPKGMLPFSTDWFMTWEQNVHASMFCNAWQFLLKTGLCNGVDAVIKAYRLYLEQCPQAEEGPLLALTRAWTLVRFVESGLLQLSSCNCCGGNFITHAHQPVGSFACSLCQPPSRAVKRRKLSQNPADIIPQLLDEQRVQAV
# B1: YdiV (natural protein, E. coli)
# chain: MKIFLENLYHSDCYFLPIRDNQQVLVGVELITHFSSEDGTVRIPTSRVIAQLTEEQHWQLFSEQLELLKSCQHFFIQHKLFAWLNLTPQVATLLLERDNYAGELLKYPFIELLINENYPHLNEGKDNRGLLSLSQVYPLVLGNLGAGNSTMKAVFDGLFTRVMLDKSFIQQQITHRSFEPFIRAIQAQISPCCNCIIAGGIDTAEILAQITPFDFHALQGCLWPAVPINQITTLVQR
# notes: YdiV, E. coli; the ydiV gene was cloned into pET29b and pGL01; His-tag removal by PPase is stated for prey proteins of the pull-down; The crystal of YdiV alone (3TLQ) was phased with Se-Met-YdiV; also called native YdiV; wild-type YdiV; source: E. coli BL21(DE3), purified (Ni2+-NTA, Source-Q, Superdex 200)
# Columns and labels:
# [1] = target: T1, FlhD4C2 complex; experiment: cell-based or functional assay
# [2] = target: T1, FlhD4C2 complex; experiment: SEC; YdiV and FlhD4C2 mixed at molar ratios 5:1, 4:1, 3:1, 2:1 or 1:1 for 10 min at room temperature; Superdex 200; fractions on SDS-PAGE; conditions: both partners purified
# [3] = target: T2, DCmut-1 (FlhDC complex with FlhC K42E, …); experiment: pull-down; His-tagged bait immobilised on Ni2+-NTA beads, prey with His-tag removed by PPase; 4°C, 30 min; 25 mM Tris-HCl pH 8.0, 100 mM NaCl; eluted with 250 mM imidazole; SDS-PAGE, Coomassie; conditions: both partners purified
# [4] = target: T3, DCmut-2 (FlhDC complex with FlhC R37E, …); experiment: as above; conditions: both partners purified
# [5] = target: B1; experiment: as above; conditions: both partners purified
binding result [5],other results,Binder
–,EMSA: DNA binding of FlhD4C2 (49-bp flhB promoter) with 5-fold excess of YdiV and at different molar ratios of YdiV:FlhD4C2 [1]: > 3 molar ratio YdiV:FlhD4C2; stoichiometry N [2]: 4 YdiV per FlhD4C2; binding result [3]: binds; binding result [4]: binds,B1
binds,–,"FlhD-His (natural protein, E. coli, FlhD, E. coli; the flhD gene was cloned into pET29b and pGL01; source: E. coli BL21(DE3): co-expressed with YdiV (in lysate); purified as bait for the pull-down) MHTSELLKHIYDINLSYLLLAQRLIVQDKASAMFRLGINEEMATTLAALTLPQMVKLAETNQLVCHFRFDSHQTITQLTQDSRVDDLQQIHTGIMLSTRLLNDVNQPEEALRKKRA"
binds,–,"FlhD fragment 1–71aa (domain or fragment, E. coli, UniProt P0A8S9 1-71, looked up, FlhD, E. coli, residues 1-71; also called FlhD (1–71aa); source: E. coli, purified recombinant protein) MHTSELLKHIYDINLSYLLLAQRLIVQDKASAMFRLGINEEMATTLAALTLPQMVKLAETNQLVCHFRFDS"
binds,–,"FlhD fragment 1–82aa (domain or fragment, E. coli, UniProt P0A8S9 1-82, looked up, FlhD, E. coli, residues 1-82; also called FlhD (1–82aa); source: E. coli, purified recombinant protein) MHTSELLKHIYDINLSYLLLAQRLIVQDKASAMFRLGINEEMATTLAALTLPQMVKLAETNQLVCHFRFDSHQTITQLTQDS"
binds,–,"FlhD fragment 1–98aa (domain or fragment, E. coli, UniProt P0A8S9 1-98, looked up, FlhD, E. coli, residues 1-98; also called FlhD (1–98aa); source: E. coli, purified recombinant protein) MHTSELLKHIYDINLSYLLLAQRLIVQDKASAMFRLGINEEMATTLAALTLPQMVKLAETNQLVCHFRFDSHQTITQLTQDSRVDDLQQIHTGIMLST"
binds,–,"FlhD fragment 1–106aa (domain or fragment, E. coli, UniProt P0A8S9 1-106, looked up, FlhD, E. coli, residues 1-106; also called FlhD (1–106aa); source: E. coli, purified recombinant protein) MHTSELLKHIYDINLSYLLLAQRLIVQDKASAMFRLGINEEMATTLAALTLPQMVKLAETNQLVCHFRFDSHQTITQLTQDSRVDDLQQIHTGIMLSTRLLNDVNQ"
